Reference: US20220073631A1 (QYUNS THERAPEUTICS, published 2022)

How the values were obtained:
[1] = molecular target: T1, human IL-4Rα (Shanghai Novoprotein Technology Co., Ltd) (human, UniProt P24394 26-232); assay: SPR, Biacore T200, antibody captured on protein A, antigen as analyte, 25 C, 1:1 model
T1 construct: Bought protein; also called hIL-4Rα; human interleukin-4 receptor alpha
Protocol: (§1) The protein A was chemically coupled to a CM5 chip, and an appropriate amount of the antibody was immobilized by a capture method such that the Rmax was less than 50 RU and the flow rate for the capture was 10 μl/min. The antigen was subject to gradient dilution, and the flow rate in the instrument was switched to 30 μl/min. The antigen was flowed through the reference channel and the channel with the immobilized antibody sequentially in an ascending order of concentration, and the running buffer was flowed through as a negative control. After each binding and dissociation was complete, the chip was regenerated with glycine, pH 1.5. Fitting was performed with the build-in software in the instrument according to a 1:1 binding model. The binding rate constant kₐ, the dissociation rate constant kd, and the equilibrium dissociation constant KD values of the antibody were calculated. Dupilumab was obtained by purchasing a commercially available medicine.

hIL-4Rα-Mu242 = molecular target: T2, hIL-4Rα-Mu242 (human, UniProt P24394 26-232); assay: SPR, Biacore T200, by the methods of Example 2
T2 construct: Printed positions fit the mature protein; also called V68R/V69F/S70Q; not shown: C-terminal his-tag
T2 chain: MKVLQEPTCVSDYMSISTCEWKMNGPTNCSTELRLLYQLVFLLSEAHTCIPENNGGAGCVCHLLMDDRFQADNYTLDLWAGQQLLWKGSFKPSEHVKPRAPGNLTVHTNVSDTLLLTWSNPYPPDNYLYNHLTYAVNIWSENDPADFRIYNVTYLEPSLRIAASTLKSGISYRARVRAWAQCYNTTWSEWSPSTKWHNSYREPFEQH
Protocol: as §1
(§2) To further narrow down the key amino acids that PD2-31 binds to, multiple mutants of hIL-4Rα were designed in Loop 2 (V40FLLSEA46) and Loop 3 (M65[…]73) (Table 2). The wild-type hIL-4Rα (hIL-4Rα-ECD) and hIL-4Rα mutants were prepared using standard techniques. Briefly, the expression plasmids containing the extracellular domain of wild-type hIL-4Rα and different mutated hIL-4Rα were constructed and transfected into HEK 293F cells. After expression, the extracellular domain of wild-type hIL-4Rα and hIL-4Rα mutants with C-terminus his-tag were purified by Nickel chromatography. Purified proteins of wild-type hIL-4Rα and hIL-4Rα mutants were analyzed for interaction with PD2-31 and Dupilumab. The interaction was studied by Biacore T200, according to the methods in Example 2.

hIL-4Rα-Mu243 = molecular target: T3, hIL-4Rα-Mu243 (human, UniProt P24394 26-232); assay: SPR, Biacore T200, by the methods of Example 2
T3 construct: Printed positions fit the mature protein; also called V69F/S70Q/A71L; not shown: C-terminal his-tag
T3 chain: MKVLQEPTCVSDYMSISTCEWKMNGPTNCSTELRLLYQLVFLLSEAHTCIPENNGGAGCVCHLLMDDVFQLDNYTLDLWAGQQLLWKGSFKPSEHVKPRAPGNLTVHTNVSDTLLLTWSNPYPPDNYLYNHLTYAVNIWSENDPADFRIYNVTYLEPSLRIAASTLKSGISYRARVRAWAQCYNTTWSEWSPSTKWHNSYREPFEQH
Protocol: as §1, §2

hIL-4Rα-Mu239 = molecular target: T4, hIL-4Rα-Mu239 (human, UniProt P24394 26-232); assay: SPR, Biacore T200, by the methods of Example 2
T4 construct: Printed positions fit the mature protein; also called M65I/D66A/D67A; not shown: C-terminal his-tag
T4 chain: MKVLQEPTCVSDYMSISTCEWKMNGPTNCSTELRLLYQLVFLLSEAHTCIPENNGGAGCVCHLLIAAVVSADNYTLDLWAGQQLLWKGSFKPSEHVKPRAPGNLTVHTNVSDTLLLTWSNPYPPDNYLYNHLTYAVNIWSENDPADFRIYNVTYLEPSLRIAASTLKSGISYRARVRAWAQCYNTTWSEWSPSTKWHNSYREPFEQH
Protocol: as §1, §2

hIL-4Rα-Mu453 = molecular target: T5, hIL-4Rα-Mu453 (human, UniProt P24394 26-232); assay: SPR, Biacore T200, by the methods of Example 2
T5 construct: Printed positions fit the mature protein; also called D66A/D67A; not shown: C-terminal his-tag
Protocol: as §1, §2

hIL-4Rα-Mu244 = molecular target: T6, hIL-4Rα-Mu244 (human, UniProt P24394 26-232); assay: SPR, Biacore T200, by the methods of Example 2
T6 construct: Printed positions fit the mature protein; also called S70Q/A71L/D72R; not shown: C-terminal his-tag
T6 chain: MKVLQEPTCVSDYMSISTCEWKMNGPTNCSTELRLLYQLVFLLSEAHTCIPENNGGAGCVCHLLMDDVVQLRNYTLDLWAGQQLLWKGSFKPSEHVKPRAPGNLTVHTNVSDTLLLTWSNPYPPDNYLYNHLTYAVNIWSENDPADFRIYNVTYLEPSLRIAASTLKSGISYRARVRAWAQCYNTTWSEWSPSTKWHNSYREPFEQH
Protocol: as §1, §2

[2] = molecular target: IL-4Rα on human cells (HEK Blue IL-4/IL-13, A549, TF-1, HFL-1, PBMCs) (human, UniProt P24394 26-825); assay: cell-based or functional assay
[3] = molecular target: T7, extracellular domain of marmoset IL-4Rα (Gly 24-His 232) with C-terminus his-tag (marmoset); assay: SPR, Biacore T200, by the methods of Example 2
T7 construct: range 24-232; Made in HEK 293F cells and purified on nickel

B1: QX005N (PD2-31) (antibody, V domains shown)
VH: EVQLVESGGGLVQPGGSLRLSCAASGIDLRTNSMSWVRQAPGKGLEWVGIIGSSGYMDYASWAKGRFTISRDNSKNTLYLQMNSLRAEDTAVYYCARHGDSSSFALWGQGTLVTVSS
VL: DIQMTQSPSSLSASVGDRVTITCRASESVYKNNRLSWYQQKPGKAPKLLIYEASKVASGVPSRFSGSGSGTDFTLTISSLQPEDFATYYCAGAYRGNIYPFGQGTKVEIK
notes: Humanized from rabbit clone #2, expressed as a full antibody in ExpiCHO-S cells (heavy chain 48.5 kDa, light chain 23.7 kDa)
- Kd [1]: 0.378 nM
- koff [1]: 0.000236 s⁻¹
- kon [1]: 612000 M⁻¹ s⁻¹
- Kd (hIL-4Rα-Mu242): 0.979 nM
- koff (hIL-4Rα-Mu242): 0.000138 s⁻¹
- kon (hIL-4Rα-Mu242): 141000 M⁻¹ s⁻¹
- Kd (hIL-4Rα-Mu243): 0.131 nM
- koff (hIL-4Rα-Mu243): 9.45e-05 s⁻¹
- kon (hIL-4Rα-Mu243): 723000 M⁻¹ s⁻¹
- Kd (hIL-4Rα-Mu239): 0.163 nM
- koff (hIL-4Rα-Mu239): 2.71e-05 s⁻¹
- kon (hIL-4Rα-Mu239): 166000 M⁻¹ s⁻¹
- Kd (hIL-4Rα-Mu453): 0.663 nM
- koff (hIL-4Rα-Mu453): 0.000118 s⁻¹
- kon (hIL-4Rα-Mu453): 178000 M⁻¹ s⁻¹
- Kd (hIL-4Rα-Mu244): 1.1 nM
- koff (hIL-4Rα-Mu244): 0.000104 s⁻¹
- kon (hIL-4Rα-Mu244): 94500 M⁻¹ s⁻¹
- IC50, IL-4-induced CCL-11 release activity in HFL-1 cells (FIG. 7(A)) [2]: 0.0431 µg/mL
- IC50, IL-4-induced CCL-17 release activity in A549 cells (FIG. 5(A)) [2]: 0.0326 µg/mL
- IC50, IL-4-induced CCL-17 release activity in PBMCs (FIG. 9(A)) [2]: 0.0248 µg/mL
- IC50, IL-4-induced STAT6 phosphorylation activity in HEK Blue IL-4/IL-13 cells (FIG. 4(A)) [2]: 0.00319 µg/mL
- IC50, IL-4-induced proliferation activity of TF-1 cells (FIG. 6(A)) [2]: 0.0139 µg/mL
- IC50, IL-13-induced CCL-11 release activity in HFL-1 cells (FIG. 7(C)) [2]: 0.0385 µg/mL
- IC50, IL-13-induced CCL-17 release activity in A549 cells (FIG. 5(C)) [2]: 0.0289 µg/mL
- IC50, IL-13-induced CCL-17 release activity in PBMCs (FIG. 9(C)) [2]: 0.0686 µg/mL
- IC50, IL-13-induced STAT6 phosphorylation activity in HEK Blue IL-4/IL-13 cells (FIG. 4(C)) [2]: 0.00878 µg/mL
- IC50, IL-13-induced proliferation activity of TF-1 cells (FIG. 6(C)) [2]: 0.0155 µg/mL
- Kd [3]: ~0.1 nM
